Assay results taken from article doi:10.1101/2020.06.06.138156 (bioRxiv, 2020).

Molecular target: T1, GST-His-hnRNP L RRM2 (162-321) (human, UniProt P14866 162-321)
T1 sequence: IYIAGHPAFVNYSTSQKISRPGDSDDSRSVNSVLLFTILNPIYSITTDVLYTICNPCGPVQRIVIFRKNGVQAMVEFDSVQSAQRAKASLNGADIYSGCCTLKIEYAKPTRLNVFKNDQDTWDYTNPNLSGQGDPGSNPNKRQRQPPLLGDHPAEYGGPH
Test: pull-down

B1: FLAG-SETD2 SHI (2114-2263) (domain or fragment)
chain: NKLSTEERRKLFEQEVAQREAQKQQQQMQNLGMTSPLPYDSLGYNAPHHPFAGYPPGYPMQAYVDPSNPNAGKVLLPTPSMDPVCSPAPYDHAQPLVGHSTEPLSAPPPVPVVPHVAAPVEVSSSQYVAQSDGVVHQDSSVAVLPVPAPG
**Q.** Does B1 bind?
**A.** binds
